# Measured values taken from publication PMC12124358 (Science Advances, 2025).
# Target: Clr4 lysine methyltransferase (KMT) domain (residues 192 to 490) (S. pombe, UniProt O60016 192-490)
# Assay: ITC
# Clr4 lysine methyltransferase (KMT) domain (residues 192 to 490), sequence (O60016 192-490): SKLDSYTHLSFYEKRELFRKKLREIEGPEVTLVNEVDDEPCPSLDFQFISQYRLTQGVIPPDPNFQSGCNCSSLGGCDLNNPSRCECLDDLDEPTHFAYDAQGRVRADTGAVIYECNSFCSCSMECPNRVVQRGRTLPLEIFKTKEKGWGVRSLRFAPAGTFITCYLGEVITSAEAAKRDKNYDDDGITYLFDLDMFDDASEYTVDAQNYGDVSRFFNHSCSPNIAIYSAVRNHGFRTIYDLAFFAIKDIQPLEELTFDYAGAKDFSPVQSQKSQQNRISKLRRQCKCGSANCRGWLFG
binder,measurement,value
"H3(1–20)_([change])-Ub_([change]), disulfide bond-linked ubiquitinated H3 tail (other) chain 1: ARTKQTARKSTGGCAPRKQL chain 2: […]",Kd,133 ± 13 µM
